Laboratory results as given in article PMC10397247.
Blank lines part the entries; values can stand above or below the binder they belong to.

What was measured:
Assay in all cases: two-hybrid library CCNG1;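 note: natural log of median RNA to DNA barcode read ratio; higher means stronger binding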
O16-bP = target: T1, O16-bP
T1 chain: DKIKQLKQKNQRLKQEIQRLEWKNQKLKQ

O11-bP = target: T2, O11-bP
T2 chain: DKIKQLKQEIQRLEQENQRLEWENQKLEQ

O4-bP = target: T3, O4-bP
T3 chain: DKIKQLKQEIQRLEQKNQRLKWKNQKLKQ

O15-bP = target: T4, O15-bP
T4 chain: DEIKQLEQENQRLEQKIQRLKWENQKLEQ

O7-bP = target: T5, O7-bP
T5 chain: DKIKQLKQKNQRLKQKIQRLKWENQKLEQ

O2-bP = target: T6, O2-bP
T6 chain: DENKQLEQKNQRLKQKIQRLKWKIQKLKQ

O5-bP = target: T7, O5-bP
T7 chain: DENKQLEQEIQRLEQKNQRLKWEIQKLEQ

O3-bP = target: T8, O3-bP
T8 chain: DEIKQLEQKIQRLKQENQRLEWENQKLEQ

O13-bP = target: T9, O13-bP
T9 chain: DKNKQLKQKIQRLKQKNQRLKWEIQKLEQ

O9-bP = target: T10, O9-bP
T10 chain: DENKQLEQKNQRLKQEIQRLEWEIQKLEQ

O6-bP = target: T11, O6-bP
T11 chain: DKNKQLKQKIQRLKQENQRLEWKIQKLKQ

O8-bP = target: T12, O8-bP
T12 chain: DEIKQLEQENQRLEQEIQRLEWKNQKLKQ

O12-bP = target: T13, O12-bP
T13 chain: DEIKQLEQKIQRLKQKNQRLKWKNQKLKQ

O14-bP = target: T14, O14-bP
T14 chain: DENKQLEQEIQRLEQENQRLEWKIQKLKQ

P9A-bN = target: T15, P9A-bN
T15 chain: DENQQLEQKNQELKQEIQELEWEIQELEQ

P7A-bN = target: T16, P7A-bN
T16 chain: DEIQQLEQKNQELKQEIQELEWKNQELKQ

P8A-bN = target: T17, P8A-bN
T17 chain: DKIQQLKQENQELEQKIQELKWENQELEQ

P3A-bN = target: T18, P3A-bN
T18 chain: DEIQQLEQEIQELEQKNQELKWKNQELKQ

P6A-bN = target: T19, P6A-bN
T19 chain: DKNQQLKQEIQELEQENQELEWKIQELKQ

P12A-bN = target: T20, P12A-bN
T20 chain: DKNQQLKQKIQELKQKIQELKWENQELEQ

P1A-bN = target: T21, P1A-bN
T21 chain: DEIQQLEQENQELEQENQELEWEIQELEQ

P2A-bN = target: T22, P2A-bN
T22 chain: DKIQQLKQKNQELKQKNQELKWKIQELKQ

P5A-bN = target: T23, P5A-bN
T23 chain: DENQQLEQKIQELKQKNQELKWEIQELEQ

P4A-bN = target: T24, P4A-bN
T24 chain: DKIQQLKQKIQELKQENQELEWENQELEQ

4H3858-bN = target: T25, 4H3858-bN
T25 chain: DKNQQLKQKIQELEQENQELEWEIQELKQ

4H741-bH = target: T26, 4H741-bH
T26 chain: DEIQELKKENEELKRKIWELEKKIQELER

4H319-bH = target: T27, 4H319-bH
T27 chain: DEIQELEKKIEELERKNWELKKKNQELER

4H2915-bH = target: T28, 4H2915-bH
T28 chain: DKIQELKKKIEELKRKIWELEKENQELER

4H492-bH = target: T29, 4H492-bH
T29 chain: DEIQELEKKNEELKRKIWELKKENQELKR

4H40-bH = target: T30, 4H40-bH
T30 chain: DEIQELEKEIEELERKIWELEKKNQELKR

4H2134-bH = target: T31, 4H2134-bH
T31 chain: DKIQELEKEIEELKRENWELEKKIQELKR

4H2839-bH = target: T32, 4H2839-bH
T32 chain: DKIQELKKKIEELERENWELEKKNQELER

4H477-bH = target: T33, 4H477-bH
T33 chain: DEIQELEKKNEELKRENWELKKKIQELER

4H348-bH = target: T34, 4H348-bH
T34 chain: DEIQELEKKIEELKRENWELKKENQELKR

4H2223-bH = target: T35, 4H2223-bH
T35 chain: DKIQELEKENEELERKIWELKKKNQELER

4H3277-bH = target: T36, 4H3277-bH
T36 chain: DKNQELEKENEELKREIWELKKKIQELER

4H2143-bH = target: T37, 4H2143-bH
T37 chain: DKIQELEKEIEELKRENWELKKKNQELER

4H2588-bH = target: T38, 4H2588-bH
T38 chain: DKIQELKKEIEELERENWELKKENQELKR

4H2438-bH = target: T39, 4H2438-bH
T39 chain: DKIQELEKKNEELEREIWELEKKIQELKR

4H2717-bH = target: T40, 4H2717-bH
T40 chain: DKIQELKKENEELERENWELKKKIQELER

4H2503-bH = target: T41, 4H2503-bH
T41 chain: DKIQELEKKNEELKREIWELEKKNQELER

4H2692-bH = target: T42, 4H2692-bH
T42 chain: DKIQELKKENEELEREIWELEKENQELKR

4H2473-bH = target: T43, 4H2473-bH
T43 chain: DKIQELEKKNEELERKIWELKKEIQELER

4H3057-bH = target: T44, 4H3057-bH
T44 chain: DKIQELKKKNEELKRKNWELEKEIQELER

interaction score (O16-bP): -1.05 | interaction score (O11-bP): -0.79 | interaction score (O4-bP): 0.69 | interaction score (O15-bP): -0.41 | interaction score (O7-bP): -1.03 | interaction score (O2-bP): -1.44 | interaction score (O5-bP): -0.395 | interaction score (O3-bP): 0.514 | interaction score (O13-bP): -1.07 | interaction score (O9-bP): -0.645 | interaction score (O6-bP): -0.577 | interaction score (O8-bP): -0.376 | interaction score (O12-bP): 0.837 | interaction score (O14-bP): -0.129
B1: O11-bP (peptide)
chain: DKIKQLKQEIQRLEQENQRLEWENQKLEQ

interaction score (P9A-bN): -1.28 | interaction score (P7A-bN): -0.617 | interaction score (P8A-bN): -1.71 | interaction score (P3A-bN): 1.82 | interaction score (P6A-bN): 0.295 | interaction score (P12A-bN): -0.758 | interaction score (P1A-bN): -1.71 | interaction score (P2A-bN): -0.94 | interaction score (P5A-bN): -1.2 | interaction score (P4A-bN): -0.221
B2: P12A-bN (peptide)
chain: DKNQQLKQKIQELKQKIQELKWENQELEQ

interaction score (4H3858-bN): 0.573 | interaction score (4H741-bH): 0.37 | interaction score (4H319-bH): 0.925 | interaction score (4H2915-bH): 1.56 | interaction score (4H492-bH): 0.362 | interaction score (4H40-bH): -0.995 | interaction score (4H2134-bH): 0.746 | interaction score (4H2839-bH): 0.785 | interaction score (4H477-bH): 1.08 | interaction score (4H348-bH): -0.551 | interaction score (4H2223-bH): -0.653 | interaction score (4H3277-bH): -0.74 | interaction score (4H2143-bH): 0.0686 | interaction score (4H2588-bH): 1.01 | interaction score (4H2438-bH): 0.0398 | interaction score (4H2717-bH): 1.07 | interaction score (4H2503-bH): 1.45 | interaction score (4H2692-bH): 0.18 | interaction score (4H2473-bH): 0.459 | interaction score (4H3057-bH): 1.45
B3: 4H2134-bH (peptide)
chain: DKIQELEKEIEELKRENWELEKKIQELKR
